Experimental data taken from the DeepSol protein solubility set.

assay: soluble on expression in E. coli; label from the status in PepcDB or PDB records

Soluble on expression in E. coli, soluble:
MEKKHIYLFCSAGMSTSLLVSKMRAQAEKYEVPVIIEAFPETLAGEKGQNADVVLLGPQIAYMLPEIQRLLPNKPVEVIDSLLYGKVDGLGVLKAAVAAIKKAAAN
AKIGLFYGTQTGVTQTIAESIQQEFGGESIVDLNDIANADASDLNAYDYLIIGCPTWGVGELQSDWEGIYDDLDSVNFQGKKVAYFGAGDQVGYSDNFQDAMGILEEKISSLGSQTVGYWPIEGYDFNESKAVRNNQFVGLAIDEDNQPDLTKNRIKTWVSQLKSEFGL
SGTPNDQAVLQAIFNPDTPFGDVVGLDLEEAEEGDEDGVFPQAQLEHSKALELQGVRAAEAGDLHTALEKFGQAISLLPDRASAYNNRAQARRLQGDVAGALEDLERAVTLSGGRGRAARQSFVQSGLLARFQGRDDDARRDFEKAARLGSPFARRQLVLLNPYAALCNRMLADMMGQLRAPSNGR
SNAMDKYPFLREAGSSFKDRDVTKMSDLIATWDGQDIKGPALIGVPLSKSSISHSGASFAPGTIRQALKHSSAYSAELGEHVVSELLYDLGDIDIHVTDIVKSHHHIFQTMHALLSDHPDWVPLILGGDNSISYSTIKAIAQTKGTTAVIQFDAHHDVRNTEDGGPTNGTPFRRLLDEEIIEGQHLIQLGIREFSNSQAYEAYAKKHNVNIHTMDMIREKGLIPTIKEILPVVQDKTDFIFISVDMDVLDQSHAPGCPAIGPGGLYTDELLEAVKYIAQQPNVAGIEIVEVDPTLDFRDMTSRAAAHVLLHALKGMKLSPFK
MNYFNVGKIVNTQGLQGEMRVLSVTDFAEERFKKGAELVLFDEKDQFVQTVTIASHRKQKNFDIIKFKDMYHINTIEKYKGYSLKVAEEDLNDLDDGEFYYHEIIGLEVYEGDSLVGTIKEILQPGANDVWVVKRKGKRDLLLPYIPPVVLNVDIPSKRVDVEILEGLDDEDLEHHHHHH
MTSLVVPGLDTLRQWLDDLGMSFFECDNCQALHLPHMQNFDGVFDAKIDLIDNTILFSAMAEVRPSAVLPLAADLSAINASSLTVKAFLDMQDDNLPKLVVCQSLSVMQGVTYEQFAWFVRQSEEQISMVILEANAHQLLLPTDDEGQNNVTENYFLH
MKNSDLYNGTLRTSFVPGSTLEAGIIFRATIPNGEFYEKEAGLSYYWLYILNGTVSFQRVENGEISNENKKYFPYGTSSAYEAKILLDDGDIYCYLNNRLVFHYTDENPLQGHQYGLKSEGSNLIVTEFATSSLEAPQHNEYLIFGHSYTDFWKTYKQDFHKYQDIYNIGIGGAITSDWCSEGYQKEVIAYQPKYGIYWNGINDINRNIAPKTIGDNVRRMAMEIKAAVPGFHLVLIGVCRCPIDSGRRSDIASTNNYYKQIASDLDYVTYIDTELMYCDSNGNEIANYFTDGLHPTHDAYIMCANAIMNTIK
MIVLPRRLSDEVADRVRALIDEKNLEAGMKLPAERQLAMQLGVSRNSLREALAKLVSEGVLLSRRGGGTFIRWRHDTWSEQNIVQPLKTLMADDPDYSFDILEARYAIEASTAWHAAMRATPGDKEKIQLCFEATLSEDPDIASQADVRFHLAIAEASHNIVLLQTMRGFFDVLQSSVKHSRQRMYLVPPVFSQLTEQHQAVIDAIFAGDADGARKAMMAHLSFVHTTMKRFDEDQARHARITRLPGEHNEHSREKNA
METRRIRKVLVANRGEIAIRVFRACTELGIRTVAIYSKEDVGSYHRYKADEAYLVGEGKKPIEAYLDIEGIIEIAKAHDVDAIHPGYGFLSENIQFAKRCREEGIIFIGPNENHLDMFGDKVKARHAAVNAGIPVIPGSDGPVDGLEDVVAFAEAHGYPIIIKAALGGGGRGMRIVRSKSEVKEAFERAKSEAKAAFGSDEVYVEKLIENPKHIEVQILGDYEGNIVHLYERDCSVQRRHQKVVEVAPSVSLSDELRQRICEAAVQLMRSVGYVNAGTVEFLVSGDEFYFIEVNPRIQVEHTITEMITGIDIVQSQILIADGCSLHSHEVGIPKQEDIRINGYAIQSRVTTEDPLNNFMPDTGKIMAYRSGGGFGVRLDAGNGFQGAVITPYYDSLLVKLSTWALTFEQAARKMLRNLREFRIRGIKTNIPFLENVVQHPKFLSGEYDTSFIDTTPELFVF

Soluble on expression in E. coli, not soluble:
MAHHHHHHMKAASAAAPAAQTKAAAEAKAATATTAASSLSLSLLQYGASLYEAHTHLPEAAVARLPLNRYADYLRHFGFSMERESRGAAAPGTTLALDCTSPNHKTQAPLDGRWGKRVETDTSYDPVEVAGWGLPEALRCEADQQCNAVGSLSDATEWSAIAKQLVHPFMSVTWRQTATQCTMKKACCVYMWLCSHMTLQVSVPGAEEDAKEDSGGVSTVGLPSAAKAASLARKANRPARKVKEVPTTLEPAAPPDPLLVALQTRRAPAPVLADVYMHMLTSVGVLCEVVVGQLKGAAPEEAFEWSWNMVTVDGRQYLVDVSAALSNGVLRSAASYSDVPSSVAVPEAGKGQRAGNAAGRGKAATPSQSSPPAGSGAVPCSESVQLLPVTPERLRREFFFFAHPTYFLASHFPADPAKALVRTAMRAVQWGVRPRLTPAFYYYGLQLASHKTHSTFAASGSPSYVSFVNHHASTTELCCALYMGTLGTLPEDLSQTAPLGAEWVWHQREESTSTDTFTLTVPQAGYYVVVIGARPIRADPYSAVFTVAGETAFTPVVSYEMRVGFTPSSSPVLPRQYLSPSICRLITPLCSQILPGKHTFCVMPSCSNVLAVAVVKFVAAAATRTLLSLLPFQPRSAAFEGDVDVRSGECVEVWVLYGAPDRNGQELSQRAAAAAPPKAAATPCRSPTPAAKFKAADKKKREASAEHQQQLSALESQLAHLTQALHKGEVFQRCVGGIEVRHFVSPAVVGVIQPQPMVEQEQSITLRRLAGVTDALLREAEEVVRRQPAPVGSYFGAVEAAAAKS
MQAIAIDQFSEPEETQVEQVENPDRNEAGYEVCNQSGENLSVAIAYFDTSIDSYRSEGWWNLDQSKCQFFPNLLDSVDEVYVFAESDQTLWSGDFPFCMQEDAFEYPDANRDRCPSPAYSKGFLKVEVGDAKTWTTNLTPSQLEHHHHHH
MGSDKIHHHHHHMAWTSAQGATAAMTVVDGVTGLPIAGATVVSAGAERVTANDGTFMMPMDGPDGGIAMTVRAPGYARLETVANGTTPRAIALAPLLAEEAARMGFDEVQFDYLRFPDAPGLRFSETNTSARRVAAITGFLSAARDRLRHYNIYLSADIFGYVCWNLDDTAIGQQLETLVVLSTTFHRCCIRPVSPSGWRRSGATSHPSRRGLP
MGSDKIHHHHHHMNAQIQIIKTAQGHMALCQDTPKDIAPAWFAVDFWRAKDAVVGSSKGRYTTWFVAFEHSHWVLRHYWRGGLMEKFSKDAYVYTGLENTRAMAELRLLNILYHEDFAVPKPIAANIVRDGLFYRADIIIERVEGAEDLVAKLSKGLMNTEQWQALGATIAQFHQRGVYHADLNAKNILFQPAQTAPITPERFYLIDFDRGELKTPSPQWQQSNLDRLLRSFNKEQGKLPSLAFTADNWSSLMMGYQAAMQSA
MAHHHHHHMSASPQLTRELSEDLLAGRYECVVCSEPVGHRQELWACSCCYGVFHLPCIRFWADSQMKARDRQLQSTSGVAVRGELERFRCPLCQSFKDKDSLAVYQCYCGKTAKPPADAMLVPGSCGQPCERRQADPCCPHRCTLLCHPGPCPACTRVREQACWCGKHSKTVGCSSSIHGYECDEACGKLLDCGEHRCKAPCHEGVCPVCTVMVTEKCYCGATVRTRRCGAAPPAFAGAAATAAADDRAAGDAGAGASVSGFRCAHHCEKKRDCDQHVCGMLCHPGLCEKCYRTPQRQKFCPCGKTRVQVERTSCMDPVPSCGLPCELPLPCGHLCWLTCHDETPCAPCKETVTVPCACGSRHVSSPCFCQYLPESEWEAARVQCGLPTDSLPVSVPPKCNQVCRHMLSCHKHRCTMTCCTDAEHTCLQICIRKLACGVHQCGRLCHQGKCPPCAHVSYERLYCRCRKTWVDPPVPCGMRPPQCNHPCSIPRPCGHPPNHPCHIEAECPKCVVLEEKPCASHQKPMPFHMPCYKKEISCGRKCGKNLPCCGKFCDLVCHIGPCEHDCAKSFPTLADVLKRGKGAAA
MEVVRIPEFKEKTAPGAYYQQPAIDGSRPGRFYANLFDIKATPKYGMRTLAYHEGIPGHHFQVAVAMELEGQPLIRKMAPFTAYIEGWALYSERVAWELGFQQDPFDNIGRLQAELFRAVRLVVDTGIHHSRWTREQAIDYMKKNTGMSDRDVTAEIERYIVMPGQATAYKVGMMKILELREKAKQALGDKFDLRDFHDVVLKNGAVPLDILEKLVDRYIADKRSQA
MNILVTGAKGFVGRNLCAQLNNIKNGKARCYGDLKIEEVFEYDIDSTSEQLDAWCQKADFVFNLAGVNRPKENVEFMKGNFGFASTLLDTLKKHHNTCPVMLSSSAQASLTGRFGNSEYGRSKKAGEDLFLQYGKDTGAKVLVYRFPNLYGKWCRPNYNSAVATFCNNIANDLPIQVSDSSVVLELLYIDDLVDEMIHALKGEEHHCEFEGLDVHPLVDGRYCYCPVTHKVTLGEIVDLLHQFAEMPKTLMIPEIPSDSFAKRLYSTYLSYLPKEKAIFDLKMNVDQRGSFTELVHTLNCGQVSINISKPGITKGEHWHNTKWEQFIVVSGHGLIQLRKEGTDEVLNYEVSGDKIQSVIMLPGYAHNIINLSDTEDLVTVMYCNEIFNPDKPDTYFDKVKK
MAFRKRRHDSEGDSDEERLPINKDEDEDLKAEPAKKSKNMWSDMLLEEQLLEKGQQINLDRTSRKQPNVSRGPESYLMPQDEFQRKQSRNANQKKKNEVFDKPVVLVTPASDDLFGDAPSALNEDFGVKKNDVKLPKDDEAGWWGKKGANKRYNDRMGYHSGGPRQPYPRKTTGQLMASEYSLESMVAAEFAPNLSTKELGTQMAAAMGEKDPDTVKKITNAIGSELSIKLFNETKEIEQNGGMKTADGSRRRTPGGVFITLFKMDSSVSREIKDGIFGDMRNAEKERTKKKKGEKQFTRQLEDMKKTMELAAQAETDLANEEQLATAVDAPFSDDAVDMV
SLVYDGNNKLIADLGSEKRESVSADSIPLNLVNAITSIEDKRFFKHRGVDIYRILGAAWHNLVSSNTQGGSTLDQQLIKLAYFSTNKSDQTLKRKSQEVWLALQMERKYTKEEILTFYINKVYMGNGNYGMRTTAKSYFGKDLKELSIAQLALLAGIPQAPTQYDPYKNP
MTVTDHILPTATNGRPPGLIIAAPSTNSGKTTVTLALHAALRRRSLTVQPYKCGPDYIDPAFHEIAAGRPCYNLDSWAFGQDRITYLLDAAAGADLCLAEGVMGLFDGGSARGAWGNGATADIAAFTGWPVVLVIDVAGQAQSAAALALGFARYRSDVRIAGVILNNVASARHEALVRDGFAAQDIPVLGGFERQRDLTLKNRHLGLVQARETARLDIRLQQLADSAVRGIDLDALIRAAQPARPIASTIRPLTPPGQRIALAHDDAFSFIYPHLTAGWRAAGAEIVPFSPLNDEGPDPSCDAAWLPGGYPELHAGRLAAATRFKAALGAFAETRAVHGECGGYMTLGAGLIDADGTRHAMAGLLGLETDFASRKLHLGYRLATLHADAAGKAAGSVLRGHEYHYARVVTVADEPLAEIRDPAGQLTDETGSRRGHVTGTFFHLIDVAEEAIALEHHHHHH
MAHHHHHHMGYTRERTNRHFFVARANAFFSRLPIARVQRSLAMEAVREGRMRPWKYTKEQILGAPVTCNFEYNPRPVRLIGTVMDAHTEETSIKGGLKVYARNEETNMMLWIPPGNPKLRHEVTSTKGSFQHYLDERDKWDEAWITGRARMK
